Target: bovine testes calmodulin (bovine, UniProt P62157 1-149)
Assay: SPR

Kd | koff | kon | Binder
19.3 nM | 0.00244 s⁻¹ | 127000 M⁻¹ s⁻¹ | His-tagged ACA8 N-terminus, wild type (6His-1M-I116) (domain or fragment) MTSLLKSSPGRRRGGDVESGKSEHADSDSDTFYIPSKNASIERLQQWRKAALVLNASRRFRYTLDLKKEQETREMRQKIRSHAHALLAANRFMDMGRESGVEKTTGPATPAGDFGI
11.3 nM | 0.00137 s⁻¹ | 121000 M⁻¹ s⁻¹ | His-tagged ACA8 N-terminus S99D (6His-1M-I116) (domain or fragment) MTSLLKSSPGRRRGGDVESGKSEHADSDSDTFYIPSKNASIERLQQWRKAALVLNASRRFRYTLDLKKEQETREMRQKIRSHAHALLAANRFMDMGREDGVEKTTGPATPAGDFGI
165 nM | 0.0255 s⁻¹ | 154000 M⁻¹ s⁻¹ | His-tagged ACA8 N-terminus S57D (6His-1M-I116) (domain or fragment) MTSLLKSSPGRRRGGDVESGKSEHADSDSDTFYIPSKNASIERLQQWRKAALVLNADRRFRYTLDLKKEQETREMRQKIRSHAHALLAANRFMDMGRESGVEKTTGPATPAGDFGI

More lines, now with the values behind:

Binder | Kd | koff | kon
His-tagged ACA8 N-terminus S19D (6His-1M-I116) (domain or fragment) MTSLLKSSPGRRRGGDVEDGKSEHADSDSDTFYIPSKNASIERLQQWRKAALVLNASRRFRYTLDLKKEQETREMRQKIRSHAHALLAANRFMDMGRESGVEKTTGPATPAGDFGI | 14.5 nM | 0.00325 s⁻¹ | 224000 M⁻¹ s⁻¹
His-tagged ACA8 N-terminus S22D (6His-1M-I116) (domain or fragment) MTSLLKSSPGRRRGGDVESGKDEHADSDSDTFYIPSKNASIERLQQWRKAALVLNASRRFRYTLDLKKEQETREMRQKIRSHAHALLAANRFMDMGRESGVEKTTGPATPAGDFGI | 23.9 nM | 0.00139 s⁻¹ | 58000 M⁻¹ s⁻¹
His-tagged ACA8 N-terminus S27D (6His-1M-I116) (domain or fragment) MTSLLKSSPGRRRGGDVESGKSEHADDDSDTFYIPSKNASIERLQQWRKAALVLNASRRFRYTLDLKKEQETREMRQKIRSHAHALLAANRFMDMGRESGVEKTTGPATPAGDFGI | 26.5 nM | 0.0052 s⁻¹ | 196000 M⁻¹ s⁻¹
His-tagged ACA8 N-terminus S29D (6His-1M-I116) (domain or fragment) MTSLLKSSPGRRRGGDVESGKSEHADSDDDTFYIPSKNASIERLQQWRKAALVLNASRRFRYTLDLKKEQETREMRQKIRSHAHALLAANRFMDMGRESGVEKTTGPATPAGDFGI | 22.3 nM | 0.00382 s⁻¹ | 171000 M⁻¹ s⁻¹

Source: publication PMC3276087 (Journal of Experimental Botany, 2011)
